Measured values published in article doi:10.1101/329136.

Key:
[1] = target: talin VBS1 (H1-H4) residues 482-636 (UniProt Q9Y490); assay: ITC
[2] = target: IpaA 483-633 containing all three VBS1-3 (A483) (Shigella flexneri) (UniProt P18010); assay: ITC
[3] = target: IpaA 524-633 containing only IpaA VBS1-2 (A524) (Shigella flexneri) (UniProt P18010); assay: ITC
[4] = target: IpaA 483-633 containing all three VBS1-3 (A483) (Shigella flexneri) (UniProt P18010); assay: SEC-MALS
[5] = target: talin VBS1 (H1-H4) residues 482-636 (UniProt Q9Y490); assay: SEC-MALS

Row | Substance | Kd [1] [nM] | further results
1 | IpaA VTBS A495K peptide | 2930 | –
2 | IpaA VTBS K498E peptide | 300 | –
3 | IpaA VTBS R489A K498A peptide | 328 | –
4 | IpaA VTBS peptide (488-512) | 174 | –
5 | IpaA-VBS1 peptide (611-633) (from UniProt P18010 611-633) | 15200 | –
6 | Talin VBS46 peptide | 60 | –
7 | Talin VBS50 peptide | 15000 to 45000 | –
8 | talin VBS1 (H1-H4) residues 482-636 (from UniProt Q9Y490 482-636) (domain or fragment) | – | KD of the first, high affinity site [2]: 115 nM; KD of the second site [2]: 4600 nM; Kd [3]: 2000 nM; stoichiometry N (talin H1-H4 per A483) [4]: 2; stoichiometry N [5]: 2
